Measured values: the RNAGym collection of RNA variant scans (doi:10.7554/elife.90254)

B1: OR4K15 (parent)
chain: GUUAACGGUCAUAGGCCAUGGAAACUAGGAGCACCAUUUCGCUGCCAGUGAAGAAAUGAACAAAGAAAAUCUGGGCCAGGCAGGCAUCAAAAGAAAUAGUCUUGCGCUCAACCAGAAAGUCUGUAAUCAUUUUAAGGGUA

Variants of: B1
Assay: self-cleavage, relative activity (ratio to wild type); higher = more cleavage; in vitro, sequencing; the parent is a self-cleaving ribozyme

| Variant | self-cleavage |
| --- | --- |
| GUUAACGGUCAUAGGCCAUGGAAACUAGGAGCACCAUUUCGCUGCCAGUGAAGAAGUGAACAAAGAAAAUCUGGGCCAGGCAGGCACCAAAAGAAAUAGUCUUGCGCUCAACCAGAAAGUCUGUAAUCAUUUUAAGGGUA [A56G U87C] | 0.74 |
| GUUAACGGUCAUGGGCCAUGGAAACUAGGAGCACCAUUUCGCUGCCAGUGAAGAAAUGAACAAAGAAAAUCUGGGCCAGGCAGGCAUCAAGAGAAAUAGUCUUGCGCUCAACCAGAAAGUCUGUAAUCAUUUUAAGGGUA [A13G A91G] | 0.9 |
| GUUAACGGUCAUAGGCCAUGGAAACUAGGAGCACCAUUUCGCUGCCAGUGAAGAAAUGAACAAAGAAAAUCUGGGCCAGGCAGACAUCAAAAGAAAUAGUCUCGCGCUCAACCAGAAAGUCUGUAAUCAUUUUAAGGGUA [G84A U103C] | 0.82 |
| GUUAACGGUCAUAGGCCAUGGAAACUAGGAGCACCAUUUCGCUGCCAGUGAAGAAAUGAGCAAAGAAAAUCUGGGCCAGGCAGGCAUCAAAAGAAAUAGUCUUGCGCUCAACCAGUAAGUCUGUAAUCAUUUUAAGGGUA [A60G A116U] | 0.31 |
| GUUAACGGUCAUAGGCCAUGGAAACUGGGAGCACCAUUUCGCUGCCAGUGAAGAAAUGAACAAAGAAAAUCUGGGCCAGGCAGGCAUCAACAGAAAUAGUCUUGCGCUCAACCAGAAAGUCUGUAAUCAUUUUAAGGGUA [A27G A91C] | 1.42 |
| GUUAUCGGUCAUAGGCCAUGGAAACUAGGAGCACCAUUUCGCUGCCAGUGAAGAAAUGAACAAAGAAAAUCUGGGCCAGGCAGGCAUCAAAAGAAAUAGUCUUGCGCUCAACCGGAAAGUCUGUAAUCAUUUUAAGGGUA [A5U A114G] | 0.49 |
| GUUAACGGUCAUAGGCCAUGGAAACUAGGAGCACCAUUUCGCUGCCAGUGAAGAAAUGAACAAAGAAAAUCUGGGCCAGGCAGGCAUCAAAAGAAAUAGUCUUGCGCUCAACCAGAAAGUUUGUAAUCAUUUUAGGGGUA [C121U A135G] | 2.01 |
| GUUAACGGUCAUAGGCCAUGGAAACUAGGAGCACCAUUUCGCUGCCAGUGAUGAAAUGAACAAAGAAAACCUGGGCCAGGCAGGCAUCAAAAGAAAUAGUCUUGCGCUCAACCAGAAAGUCUGUAAUCAUUUUAAGGGUA [A52U U70C] | 1.72 |
| GUUAACGGUCAUAGGCCAUGGAAACUAGGAGCACCAUUUCGCUGCCAGUGAAGAAAUGAACAAAGAAAAUCUGGGCCAGACAGGCAUCAAAGGAAAUAGUCUUGCGCUCAACCAGAAAGUCUGUAAUCAUUUUAAGGGUA [G80A A92G] | 0.16 |
| GUUAACGGUCAUAGGCCAUGGAAACUAGGAGCACCAUUUCGCUGCCAGUGAAGAAAUGAACAAAGAAAAUCUGGGCCAGGCAGGCAUCAAAGGAAAUAGUCUUGCGCUCAACAAGAAAGUCUGUAAUCAUUUUAAGGGUA [A92G C113A] | 0.01 |
| GUUAACGGUCAUAGGCCAUGGAAACUAGGAGCACCAUUUCGCUGCCAGUGAAGAGAUGAACAAAGAAAAUCUGGGCCAGGCAGGCAUCAAAAGAAAUAGUCUUGCGCUCAACCAGAAAGUCUUUAAUCAUUUUAAGGGUA [A55G G123U] | 2.01 |
| GUUAACGGUCAUAGGCCAUGGAAACUAGGGGCUCCAUUUCGCUGCCAGUGAAGAAAUGAACAAAGAAAAUCUGGGCCAGGCAGGCAUCAAAAGAAAUAGUCUUGCGCUCAACCAGAAAGUCUGUAAUCAUUUUAAGGGUA [A30G A33U] | 1.18 |
| GUUAACGGUCAUAGGCCAUGGAACCUAGGAGCACCAUUUCGCUGCCAGUGAAGAAAUGAACAAAGAAGAUCUGGGCCAGGCAGGCAUCAAAAGAAAUAGUCUUGCGCUCAACCAGAAAGUCUGUAAUCAUUUUAAGGGUA [A24C A68G] | 1.52 |
| GUUAACGGUCAUAGGCCAUGGAAACUAGGAGCACCAUUUCGCUGCCAGUGAAGAAAUGAACAAAGAAAAUCUGGGCCAGGCAGGCAUCUAUAGAAAUAGUCUUGCGCUCAACCAGAAAGUCUGUAAUCAUUUUAAGGGUA [A89U A91U] | 1.24 |
| GUUAACGGUCAUAGGCCAUGGAAACUAGGAGCACCAUUUCGCAGCCAGUGAAGAAAUGAACAAAGAAAAUCUGGGCCAGGCAGGCAUCGAAAGAAAUAGUCUUGCGCUCAACCAGAAAGUCUGUAAUCAUUUUAAGGGUA [U43A A89G] | 1.77 |
| GUUAACGGUCAUAGGCCAUGGAAACUAGGAGCACCAUUUCGCUGCCAGUGAAGAAAUGAACAAAGAAAAUCUGGGCCAGGCAGGCAUCAAAAGAAAUAGCCUUGCGCUCAACCAGGAAGUCUGUAAUCAUUUUAAGGGUA [U100C A116G] | 1.32 |
| GUUAACGGUCAUAGGCCAUGGAAACUAGGAGCACCAUUUCGCAGCCAGUGAAGAAAUGAACAAAGAAAAUCUGGGCCAGGCAGGCGUCAAAAGAAAUAGUCUUGCGCUCAACCAGAAAGUCUGUAAUCAUUUUAAGGGUA [U43A A86G] | 1.6 |
| GUUAACGGUCAUAGGCCAUGGAAACUAGGAGCACCAUUUCGCUGCCAGUGAAGAAAUGAACAAAGAAAAUCUGGGCCAGGCAGGCAUCAAAAGAAAUAGUCUUGCGCUCAACCAGAAAGUCUGUAAUUAUCUUAAGGGUA [C128U U131C] | 1.17 |
| GUUAACGGUCAUAGGCCAUGGAAACUAGGAGCACCAUUUCGCUGCUAGUGAAGAAAUGAACAAAGAAAAUCUGGGCCAGGCAGGCAUCAAAAGAAGUAGUCUUGCGCUCAACCAGAAAGUCUGUAAUCAUUUUAAGGGUA [C46U A96G] | 2.13 |
| GUUAGCGGUCAUAGGCCAUGGAAACUAGGAGCACCAUUUCGCUGCCAGUGAAGAAAUGAACAAAGAAAAUCUGGGCCAGGCAGGCAUCAAAGGAAAUAGUCUUGCGCUCAACCAGAAAGUCUGUAAUCAUUUUAAGGGUA [A5G A92G] | 0.53 |
| GUUAACGGUCAUAGGCCAUGGAAACUAGGAGCACCAUUUCGCUGCCAGUGAAGAAAUGAACAAAGAAAAUCUGGGCCAGGCAGGCAUCAAGAGAAAUAAUCUUGCGCUCAACCAGAAAGUCUGUAAUCAUUUUAAGGGUA [A91G G99A] | 0.21 |

| Variant | self-cleavage |
| --- | --- |
| GUUAACGGUCAUGGGCCAUGGAAACUAGGAGCACCAUUUCGCUGCCAGUGAAGAAAUGAACAAAGAAAAUCUGGGCCAGGCAGGCAUCAAAAGAAAUAGUCUUGCGCUCAACCAGAAAGUCUUUAAUCAUUUUAAGGGUA [A13G G123U] | 1.33 |
| GUUAACGGUCAUAGGCCAUGGAAACUAGGAGCACCAUUUCUCUGCCAGUGAAGAAAUGAACAAAGAAAAUCUGGGCCAGGCAGGCAUCAAGAGAAAUAGUCUUGCGCUCAACCAGAAAGUCUGUAAUCAUUUUAAGGGUA [G41U A91G] | 1.31 |
| GUUAACGGUCAUAGGCCAUGGAAACUAGGUGCACCAUUUCGCUGCCAGUGAAGAAAUGAACAAAGAAAAUCUGGGCCAGGCAGGCAUCAAAAGAAAUAGUCUUGUGCUCAACCAGAAAGUCUGUAAUCAUUUUAAGGGUA [A30U C105U] | 0.4 |
| GUUAACGGUCAUAGGCCAUGGAAACUGGGAGCACCAUUUCGCUGCCAGUGAAGAAAUGAACAAAGAAAAUCUGGGCCAGGCAGGCAUCAAAAGAAAUGGUCUUGCGCUCAACCAGAAAGUCUGUAAUCAUUUUAAGGGUA [A27G A98G] | 0.77 |
| GUUAACGGUCAUGGGCCAUGGAAACUAGGAGCACCAUUUCGCUGCCAGUGAAGAAAUGAACAAAGAAAAUCUGGGCCAGGCAGGCAACAAAAGAAAUAGUCUUGCGCUCAACCAGAAAGUCUGUAAUCAUUUUAAGGGUA [A13G U87A] | 0.92 |
| GUUAACGGUCAUAGGCCAUGGAAACUAGGAGCACCAUUUCGCUGCCAGUGAAGAAAUGAACAAAGAAAAUCUGGGCCAGGCAGGCGUCAAAAGAAAUAGUCAUGCGCUCAACCAGAAAGUCUGUAAUCAUUUUAAGGGUA [A86G U102A] | 1.36 |
| GUUAACGGUCAUAGGCCAUGGAAACUAGGAGCACCAUUUCGCUGCCAGUGAAGAAGUGAACAGAGAAAAUCUGGGCCAGGCAGGCAUCAAAAGAAAUAGUCUUGCGCUCAACCAGAAAGUCUGUAAUCAUUUUAAGGGUA [A56G A63G] | 0.85 |
| GUUAACGGCCAUAGGCCAUGGAAACUAGGAGCACCAUUUCGCUGCCAGUGAAGAAAUGAACAAAGAAAAUCUGGGCCAGGCAGGCAUCAAAAGAAAUAGUCUUGCGCUCAACCUGAAAGUCUGUAAUCAUUUUAAGGGUA [U9C A114U] | 0.1 |
| GUUAACGGUCAUAGGCCAUGGAAACUAGGAGCACCAUUUCGCUGCCAGUGAAGAAAUGAACAAAGAAAAUCUGGGCCAGGCAGGCAUCAAAAGAAGUAGUCUUGCGCUCAACCAGAAAGUUUGUAAUCAUUUUAAGGGUA [A96G C121U] | 2.57 |
| GUUAACGGUCAUAGGCCAUGGAAACUAGGAGCACCAUUUCGCUGCCAGUGAAGAAAUGAACAAAGAAAAUCUGGGCCAGGCAGGCAUCAAAAGAAAUAGUCUUGCGCUAAACCAGAGAGUCUGUAAUCAUUUUAAGGGUA [C109A A117G] | 0.59 |
| GUUAACGGUCAUAGGCCAUGGAAACUAGGAGCACCAUUUCGCUGCCAGUGAAGAGAUGAACAAAGAAAAUCUGGGCCAGGCAGGCAUCAAAAGAAAUAGUCUUGCGCUCAACCAGAAAGUCUGUAAUCAUUUUAAGGAUA [A55G G138A] | 1.54 |
| GUUAACGGUCAUAGGCCAUGGAAACUAGGAGCACCAUCUCGCUGCCAGUGAAGAAAUGAACAGAGAAAAUCUGGGCCAGGCAGGCAUCAAAAGAAAUAGUCUUGCGCUCAACCAGAAAGUCUGUAAUCAUUUUAAGGGUA [U38C A63G] | 1.7 |
| GUUAACGGUCAUAGGCCAUGGAAACUAGGAGCUCCAUUUCGCUGCCAGUGAAGAAAUGAACAAAGAAAAUCUGGGCCAGGCAGGCAUCAAAAGAAAUAGUCUUGCGCUCAACCAGAAAGUCAGUAAUCAUUUUAAGGGUA [A33U U122A] | 2.69 |
| GUUAACGGUCAUAGGCCAUGGAAACUAGGAGCACCAUUUCGCUGCCAGUGAAGGAAUGAACAAAGAAAAUCUGGGCCAGGCAGGCAUCAAAAGAAAUAGCCUUGCGCUCAACCAGAAAGUCUGUAAUCAUUUUAAGGGUA [A54G U100C] | 2.16 |
| GUCAACGGUCAUAGGCCAUGGAAACUAGGAGCACCAUUUCGCUGCCAGUGCAGAAAUGAACAAAGAAAAUCUGGGCCAGGCAGGCAUCAAAAGAAAUAGUCUUGCGCUCAACCAGAAAGUCUGUAAUCAUUUUAAGGGUA [U3C A51C] | 0.84 |
| GUUAACGGUCAUAGGCCAUGGAGACUAGGAGCACCAUUUCGCUGCCAGUGAAGAAAUGAACAAAGAAAAACUGGGCCAGGCAGGCAUCAAAAGAAAUAGUCUUGCGCUCAACCAGAAAGUCUGUAAUCAUUUUAAGGGUA [A23G U70A] | 0.97 |
| GUUAACGGUCAUAGGCCAUGGAAACUAGGAGCACCAUUACGCUGCCAGUGAAGAAAUGAACAAAGAAAAUCUGGGCCAGGCAGGCAUCAAAAGAAACAGUCUUGCGCUCAACCAGAAAGUCUGUAAUCAUUUUAAGGGUA [U39A U97C] | 1.85 |
| GUUAACGGUCGUAGGCCAUGGAAACUAGGAGCACCAUUUCGCUGCCAGUUAAGAAAUGAACAAAGAAAAUCUGGGCCAGGCAGGCAUCAAAAGAAAUAGUCUUGCGCUCAACCAGAAAGUCUGUAAUCAUUUUAAGGGUA [A11G G50U] | 1.02 |
| GUUAACGGUCAUAGGCCAUGGAAACUAGGAGCACCAUUUCGCUGCCAGUGAAGACAUGAACAAAGAAAAUCUGGGCCAGGCAGGCAUCAAAAGAAAUAGUCCUGCGCUCAACCAGAAAGUCUGUAAUCAUUUUAAGGGUA [A55C U102C] | 1.41 |
| GUUAACGGUCAUAGGCCAAGGAAACUAGGAGCACCAUUUCGCUGCCAGUGAAGAAACGAACAAAGAAAAUCUGGGCCAGGCAGGCAUCAAAAGAAAUAGUCUUGCGCUCAACCAGAAAGUCUGUAAUCAUUUUAAGGGUA [U19A U57C] | 0.67 |
